Source: paper PMC5663490 (PLoS ONE, 2017)
Values belong to the molecule of their own block, whether it stands above or below them.

Columns and labels:
[1] = biological target: HMunc18c (mouse) (UniProt Q60770); test: ITC; Munc18 proteins (HMunc18c or Munc18a-His) at 10–20 μM with Syntaxin partners at 100–550 μM; 298 K; 25 mM HEPES pH 8, 200 mM NaCl, 2 mM β-mercaptoethanol, 10% glycerol; 16 injections of 2.45 μL; which partner was in the syringe is not said
[2] = biological target: T1, HMunc18c (mouse, UniProt Q60770 1-592); test: as above; details: both partners purified
T1 construct: pQE30 vector; also called Munc18-3; source: E. coli BL21 with GroEL/ES chaperones, purified (Ni2+ resin, SEC, MonoS if required); not shown: His6, N-terminal, kept
T1 sequence (looked up): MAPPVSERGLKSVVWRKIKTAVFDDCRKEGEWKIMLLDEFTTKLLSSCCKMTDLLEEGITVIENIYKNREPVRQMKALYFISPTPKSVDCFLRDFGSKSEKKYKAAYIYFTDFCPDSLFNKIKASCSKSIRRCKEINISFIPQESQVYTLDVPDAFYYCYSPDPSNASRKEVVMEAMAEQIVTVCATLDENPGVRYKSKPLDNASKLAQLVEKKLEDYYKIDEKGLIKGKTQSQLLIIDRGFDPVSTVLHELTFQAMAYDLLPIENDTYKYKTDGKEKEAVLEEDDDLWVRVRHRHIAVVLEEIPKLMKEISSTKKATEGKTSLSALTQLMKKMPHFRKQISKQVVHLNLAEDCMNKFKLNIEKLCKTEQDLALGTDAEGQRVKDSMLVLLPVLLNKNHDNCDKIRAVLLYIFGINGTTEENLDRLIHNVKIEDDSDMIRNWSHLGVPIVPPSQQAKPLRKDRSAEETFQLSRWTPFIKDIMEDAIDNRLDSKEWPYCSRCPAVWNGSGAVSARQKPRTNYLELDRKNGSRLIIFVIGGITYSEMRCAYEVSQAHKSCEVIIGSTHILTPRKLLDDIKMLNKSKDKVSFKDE

Kd [1]: 0.08 µM | dH [1]: -63.6 kJ/mol | stoichiometry N [1]: 1.03
Molecule: Sx1_(1-261)-His (from UniProt P32851 1-261) (domain or fragment)

Kd [1]: 730 µM | dH [1]: -18.6 kJ/mol | stoichiometry N [1]: 1.07
Molecule: ΔNSx1_(25-261)-His (from UniProt P32851 25-261) (domain or fragment)

Kd [2]: 0.1 µM | dH [2]: -59 kJ/mol | stoichiometry N [2]: 1.03
B1: Sx4_(1-275)-His (domain or fragment, rat, UniProt Q08850 1-275, looked up)
chain: MRDRTHELRQGDNISDDEDEVRVALVVHSGAARLSSPDDEFFQKVQTIRQTMAKLESKVRELEKQQVTILATPLPEESMKQGLQNLREEIKQLGREVRAQLKAIEPQKEEADENYNSVNTRMKKTQHGVLSQQFVELINKSNSMQSEYREKNVERIRRQLKITNAGMVSDEELEQMLDSGQSEVFVSNILKDTQVTRQALNEISARHSEIQQLERSIRELHEIFTFLATEVEMQGEMINRIEKNILSSADYVERGQEHVKIALENQKKARKKKVM
notes: cloned into pET20b; also called Syntaxin4; not shown: His6, C-terminal, kept
